# T1: EsCas13d, nuclease-dead (Eubacterium siraeum, UniProt B0MS50, R295A;H300A;R849A;H854A)
# T1 sequence: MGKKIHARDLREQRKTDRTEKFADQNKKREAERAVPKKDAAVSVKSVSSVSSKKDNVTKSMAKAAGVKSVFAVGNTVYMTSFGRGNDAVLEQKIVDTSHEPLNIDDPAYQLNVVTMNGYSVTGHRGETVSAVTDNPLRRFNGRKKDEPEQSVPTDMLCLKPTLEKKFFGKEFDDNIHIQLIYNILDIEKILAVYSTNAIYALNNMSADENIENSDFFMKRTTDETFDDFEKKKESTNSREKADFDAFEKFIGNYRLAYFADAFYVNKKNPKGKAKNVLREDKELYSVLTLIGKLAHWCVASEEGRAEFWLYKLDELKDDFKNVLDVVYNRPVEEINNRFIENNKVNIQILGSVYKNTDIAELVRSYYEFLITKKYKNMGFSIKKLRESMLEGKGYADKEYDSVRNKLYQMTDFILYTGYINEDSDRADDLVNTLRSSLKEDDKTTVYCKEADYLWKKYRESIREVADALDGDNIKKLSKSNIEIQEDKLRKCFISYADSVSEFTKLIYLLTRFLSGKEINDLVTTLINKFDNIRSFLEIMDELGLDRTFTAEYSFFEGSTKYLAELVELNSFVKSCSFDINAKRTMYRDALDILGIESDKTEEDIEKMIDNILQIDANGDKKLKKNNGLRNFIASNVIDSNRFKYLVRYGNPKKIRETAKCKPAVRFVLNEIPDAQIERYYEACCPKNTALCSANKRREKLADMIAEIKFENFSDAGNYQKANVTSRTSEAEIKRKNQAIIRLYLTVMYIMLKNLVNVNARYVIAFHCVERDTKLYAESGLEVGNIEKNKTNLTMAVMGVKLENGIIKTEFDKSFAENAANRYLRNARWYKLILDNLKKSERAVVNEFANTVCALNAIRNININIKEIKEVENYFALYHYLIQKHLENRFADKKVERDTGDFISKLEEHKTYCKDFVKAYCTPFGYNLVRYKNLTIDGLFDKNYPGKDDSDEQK
# Target: T1, EsCas13d, nuclease-dead
# Experiment: crRNA (strand 1, pre-loaded); Mg2+; 40 mM Tris-HCl pH 7.5, 150 mM NaCl, 6 mM MgCl2, 1 mM DTT, 0.1% Tween-20, 0.2 mg/ml BSA; 25 C; 10 min per concentration, then washed
# Conditions: tags: His6-TwinStrep-SUMO cleaved; N-terminal SNAP kept (SNAP-Surface 488); label: 3' end held by stalled T7 RNA polymerase
row,Binder,Kd [nM]
1,target 2 MT 5'PFS GUU 3'PFS AUC (mixed) RNA 1: CACCCGUGCAAAAUUGCAGGGGUCUAAAACCUUCUCCAAAUUGUUUCAUCCU RNA 2: GGGAAUGGAUCCACAUCUACGAAUUCGUUAGGAUGAAACAAUUUGGAGAAGAUCAGAUCGGAAGAGCACACGU,15 ± 1.2
2,target 2 MT 5'PFS UUC 3'PFS UUC (mixed) RNA 1: CACCCGUGCAAAAUUGCAGGGGUCUAAAACCUUCUCCAAAUUGUUUCAUCCU RNA 2: GGGAAUGGAUCCACAUCUACGAAUUCUUCAGGAUGAAACAAUUUGGAGAAGUUCAGAUCGGAAGAGCACACGU,31 ± 8
3,target 2 MT 5'PFS AGG 3'PFS ACU (mixed) RNA 1: CACCCGUGCAAAAUUGCAGGGGUCUAAAACCUUCUCCAAAUUGUUUCAUCCU RNA 2: GGGAAUGGAUCCACAUCUACGAAUUCAGGAGGAUGAAACAAUUUGGAGAAGACUAGAUCGGAAGAGCACACGU,8.1 ± 1.8
4,target 2 MT 5'PFS AAU 3'PFS AUU (mixed) RNA 1: CACCCGUGCAAAAUUGCAGGGGUCUAAAACCUUCUCCAAAUUGUUUCAUCCU RNA 2: GGGAAUGGAUCCACAUCUACGAAUUCAAUAGGAUGAAACAAUUUGGAGAAGAUUAGAUCGGAAGAGCACACGU,5.3 ± 0.6
5,target 2 MT 5'PFS GUG 3'PFS UGC (mixed) RNA 1: CACCCGUGCAAAAUUGCAGGGGUCUAAAACCUUCUCCAAAUUGUUUCAUCCU RNA 2: GGGAAUGGAUCCACAUCUACGAAUUCGUGAGGAUGAAACAAUUUGGAGAAGUGCAGAUCGGAAGAGCACACGU,17.1 ± 2.5
6,target 2 MT 5'PFS CGG 3'PFS CCC (mixed) RNA 1: CACCCGUGCAAAAUUGCAGGGGUCUAAAACCUUCUCCAAAUUGUUUCAUCCU RNA 2: GGGAAUGGAUCCACAUCUACGAAUUCCGGAGGAUGAAACAAUUUGGAGAAGCCCAGAUCGGAAGAGCACACGU,~19
7,target 2 MT 5'PFS UCG 3'PFS UAA (mixed) RNA 1: CACCCGUGCAAAAUUGCAGGGGUCUAAAACCUUCUCCAAAUUGUUUCAUCCU RNA 2: GGGAAUGGAUCCACAUCUACGAAUUCUCGAGGAUGAAACAAUUUGGAGAAGUAAAGAUCGGAAGAGCACACGU,15 ± 4
8,target 2 MT 5'PFS UCG 3'PFS UAU (mixed) RNA 1: CACCCGUGCAAAAUUGCAGGGGUCUAAAACCUUCUCCAAAUUGUUUCAUCCU RNA 2: GGGAAUGGAUCCACAUCUACGAAUUCUCGAGGAUGAAACAAUUUGGAGAAGUAUAGAUCGGAAGAGCACACGU,34 ± 14
9,target 2 MT 5'PFS AGG 3'PFS UCU (mixed) RNA 1: CACCCGUGCAAAAUUGCAGGGGUCUAAAACCUUCUCCAAAUUGUUUCAUCCU RNA 2: GGGAAUGGAUCCACAUCUACGAAUUCAGGAGGAUGAAACAAUUUGGAGAAGUCUAGAUCGGAAGAGCACACGU,13.8 ± 2.1
10,target 2 MT 5'PFS CGG 3'PFS CCG (mixed) RNA 1: CACCCGUGCAAAAUUGCAGGGGUCUAAAACCUUCUCCAAAUUGUUUCAUCCU RNA 2: GGGAAUGGAUCCACAUCUACGAAUUCCGGAGGAUGAAACAAUUUGGAGAAGCCGAGAUCGGAAGAGCACACGU,4.7 ± 0.4
11,target 2 MT 5'PFS AAU 3'PFS AUA (mixed) RNA 1: CACCCGUGCAAAAUUGCAGGGGUCUAAAACCUUCUCCAAAUUGUUUCAUCCU RNA 2: GGGAAUGGAUCCACAUCUACGAAUUCAAUAGGAUGAAACAAUUUGGAGAAGAUAAGAUCGGAAGAGCACACGU,4.5 ± 0.9
12,target 2 MT 5'PFS AAU 3'PFS AUC (mixed) RNA 1: CACCCGUGCAAAAUUGCAGGGGUCUAAAACCUUCUCCAAAUUGUUUCAUCCU RNA 2: GGGAAUGGAUCCACAUCUACGAAUUCAAUAGGAUGAAACAAUUUGGAGAAGAUCAGAUCGGAAGAGCACACGU,6.3 ± 0.7
13,target 2 MT 5'PFS AUU 3'PFS UUU (mixed) RNA 1: CACCCGUGCAAAAUUGCAGGGGUCUAAAACCUUCUCCAAAUUGUUUCAUCCU RNA 2: GGGAAUGGAUCCACAUCUACGAAUUCAUUAGGAUGAAACAAUUUGGAGAAGUUUAGAUCGGAAGAGCACACGU,32 ± 7
14,target 2 MT 5'PFS ACG 3'PFS UUC (mixed) RNA 1: CACCCGUGCAAAAUUGCAGGGGUCUAAAACCUUCUCCAAAUUGUUUCAUCCU RNA 2: GGGAAUGGAUCCACAUCUACGAAUUCACGAGGAUGAAACAAUUUGGAGAAGUUCAGAUCGGAAGAGCACACGU,16 ± 6
15,target 2 MT 5'PFS ACG 3'PFS AGC (mixed) RNA 1: CACCCGUGCAAAAUUGCAGGGGUCUAAAACCUUCUCCAAAUUGUUUCAUCCU RNA 2: GGGAAUGGAUCCACAUCUACGAAUUCACGAGGAUGAAACAAUUUGGAGAAGAGCAGAUCGGAAGAGCACACGU,6.4 ± 1.1
16,target 2 MT 5'PFS AGG 3'PFS ACC (mixed) RNA 1: CACCCGUGCAAAAUUGCAGGGGUCUAAAACCUUCUCCAAAUUGUUUCAUCCU RNA 2: GGGAAUGGAUCCACAUCUACGAAUUCAGGAGGAUGAAACAAUUUGGAGAAGACCAGAUCGGAAGAGCACACGU,15 ± 6
17,target 2 MT 5'PFS UCU 3'PFS CCG (mixed) RNA 1: CACCCGUGCAAAAUUGCAGGGGUCUAAAACCUUCUCCAAAUUGUUUCAUCCU RNA 2: GGGAAUGGAUCCACAUCUACGAAUUCUCUAGGAUGAAACAAUUUGGAGAAGCCGAGAUCGGAAGAGCACACGU,17.4 ± 3
18,target 2 MT 5'PFS AGC 3'PFS AUU (mixed) RNA 1: CACCCGUGCAAAAUUGCAGGGGUCUAAAACCUUCUCCAAAUUGUUUCAUCCU RNA 2: GGGAAUGGAUCCACAUCUACGAAUUCAGCAGGAUGAAACAAUUUGGAGAAGAUUAGAUCGGAAGAGCACACGU,6.8 ± 1.2
19,target 2 MT 5'PFS ACG 3'PFS AGA (mixed) RNA 1: CACCCGUGCAAAAUUGCAGGGGUCUAAAACCUUCUCCAAAUUGUUUCAUCCU RNA 2: GGGAAUGGAUCCACAUCUACGAAUUCACGAGGAUGAAACAAUUUGGAGAAGAGAAGAUCGGAAGAGCACACGU,7.8 ± 2.4
20,target 2 MT 5'PFS CGG 3'PFS CCA (mixed) RNA 1: CACCCGUGCAAAAUUGCAGGGGUCUAAAACCUUCUCCAAAUUGUUUCAUCCU RNA 2: GGGAAUGGAUCCACAUCUACGAAUUCCGGAGGAUGAAACAAUUUGGAGAAGCCAAGAUCGGAAGAGCACACGU,37 ± 18
21,target 2 MT 5'PFS GAA 3'PFS UGU (mixed) RNA 1: CACCCGUGCAAAAUUGCAGGGGUCUAAAACCUUCUCCAAAUUGUUUCAUCCU RNA 2: GGGAAUGGAUCCACAUCUACGAAUUCGAAAGGAUGAAACAAUUUGGAGAAGUGUAGAUCGGAAGAGCACACGU,18 ± 2.7
22,target 2 MT 5'PFS CAU 3'PFS CGC (mixed) RNA 1: CACCCGUGCAAAAUUGCAGGGGUCUAAAACCUUCUCCAAAUUGUUUCAUCCU RNA 2: GGGAAUGGAUCCACAUCUACGAAUUCCAUAGGAUGAAACAAUUUGGAGAAGCGCAGAUCGGAAGAGCACACGU,3.4 ± 0.6
23,target 2 MT 5'PFS UCG 3'PFS UAG (mixed) RNA 1: CACCCGUGCAAAAUUGCAGGGGUCUAAAACCUUCUCCAAAUUGUUUCAUCCU RNA 2: GGGAAUGGAUCCACAUCUACGAAUUCUCGAGGAUGAAACAAUUUGGAGAAGUAGAGAUCGGAAGAGCACACGU,27 ± 7
24,target 2 MT 5'PFS CGC 3'PFS CUU (mixed) RNA 1: CACCCGUGCAAAAUUGCAGGGGUCUAAAACCUUCUCCAAAUUGUUUCAUCCU RNA 2: GGGAAUGGAUCCACAUCUACGAAUUCCGCAGGAUGAAACAAUUUGGAGAAGCUUAGAUCGGAAGAGCACACGU,14 ± 4
25,"target 1 insC 3' of 14,insC 3' of 3 (mixed) RNA 1: CACCCGUGCAAAAAUGCAGGGGUCUAAAACUGAGCGGAUAACCUCUCUAUGG RNA 2: GGGAAUGGAUCCACAUCUACGAAUUCGUACCAUAGAGACGGUUAUCCGCUCCACCGAGAUCGGAAGAGCACACGU",45 ± 7
26,"target 1 insU 3' of 21,insA 3' of 11 (mixed) RNA 1: CACCCGUGCAAAAAUGCAGGGGUCUAAAACUGAGCGGAUAACCUCUCUAUGG RNA 2: GGGAAUGGAUCCACAUCUACGAAUUCGUACCUAUAGAGAGGUAUAUCCGCUCACCGAGAUCGGAAGAGCACACGU",49 ± 5
27,"target 1 A1U,A16U (mixed) RNA 1: CACCCGUGCAAAAAUGCAGGGGUCUAAAACUGAGCGGAUAACCUCUCUAUGG RNA 2: GGGAAUGGAUCCACAUCUACGAAUUCGUACCAUAGUGAGGUUAUCCGCUCUCCGAGAUCGGAAGAGCACACGU",70 ± 13
28,"target 1 insU 3' of 17,insG 3' of 1 (mixed) RNA 1: CACCCGUGCAAAAAUGCAGGGGUCUAAAACUGAGCGGAUAACCUCUCUAUGG RNA 2: GGGAAUGGAUCCACAUCUACGAAUUCGUACCAUAGUAGAGGUUAUCCGCUCAGCCGAGAUCGGAAGAGCACACGU",17.7 ± 2.1

# — article PMC10786891, “Massively parallel profiling of RNA-targeting CRISPR-Cas13d”
